Test results reported in patent US7183387 (Genentech, dated 2007).

T1: human FcγRIIA-R131 α subunit extracellular domain-His6-GST fusion (human, UniProt P12318 34-217)
T1 construct: ECD-6His-GST fusion made in 293 cells; also called FcγRIIA-Arg131; not shown: glutathione S transferase (GST)
T1 sequence: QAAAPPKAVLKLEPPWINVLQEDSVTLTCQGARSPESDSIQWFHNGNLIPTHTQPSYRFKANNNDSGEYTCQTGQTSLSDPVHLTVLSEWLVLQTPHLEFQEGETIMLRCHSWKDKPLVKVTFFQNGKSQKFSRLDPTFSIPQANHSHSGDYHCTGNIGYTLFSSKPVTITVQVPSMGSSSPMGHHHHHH

B1: anti-IgE E27 IgG1 variant E333(352)R (antibody)
heavy: not shown
light: DIQLTQSPSSLSASVGDRVTITCRASKPVDGEGDSYLNWYQQKPGKAPKLLIYAASYLESGVPSRFSGSGSGTDFTLTISSLQPEDFATYYCQQSHEDPYTFGQGTKVEIKRTVAAPSVFIFPPSDEQLKSGTASVVCLLNNFYPREAKVQWKVDNALQSGNSQESVTEQDSKDSTYSLSSTLTLSKADYEKHKVYACEVTHQGLSSPVTKSFNRGEC
notes: Fc variant of E27
B2: anti-IgE E27 IgG1 variant K334(353)N (antibody)
heavy: not shown
light: DIQLTQSPSSLSASVGDRVTITCRASKPVDGEGDSYLNWYQQKPGKAPKLLIYAASYLESGVPSRFSGSGSGTDFTLTISSLQPEDFATYYCQQSHEDPYTFGQGTKVEIKRTVAAPSVFIFPPSDEQLKSGTASVVCLLNNFYPREAKVQWKVDNALQSGNSQESVTEQDSKDSTYSLSSTLTLSKADYEKHKVYACEVTHQGLSSPVTKSFNRGEC
notes: Fc variant of E27
B3: anti-IgE E27 IgG1 variant K334(353)Q (antibody)
heavy: not shown
light: DIQLTQSPSSLSASVGDRVTITCRASKPVDGEGDSYLNWYQQKPGKAPKLLIYAASYLESGVPSRFSGSGSGTDFTLTISSLQPEDFATYYCQQSHEDPYTFGQGTKVEIKRTVAAPSVFIFPPSDEQLKSGTASVVCLLNNFYPREAKVQWKVDNALQSGNSQESVTEQDSKDSTYSLSSTLTLSKADYEKHKVYACEVTHQGLSSPVTKSFNRGEC
notes: Fc variant of E27
B4: anti-IgE E27 IgG1 variant K334(353)E (antibody)
heavy: not shown
light: DIQLTQSPSSLSASVGDRVTITCRASKPVDGEGDSYLNWYQQKPGKAPKLLIYAASYLESGVPSRFSGSGSGTDFTLTISSLQPEDFATYYCQQSHEDPYTFGQGTKVEIKRTVAAPSVFIFPPSDEQLKSGTASVVCLLNNFYPREAKVQWKVDNALQSGNSQESVTEQDSKDSTYSLSSTLTLSKADYEKHKVYACEVTHQGLSSPVTKSFNRGEC
notes: Fc variant of E27
B5: anti-IgE E27 IgG1 variant K334(353)G (antibody)
heavy: not shown
light: DIQLTQSPSSLSASVGDRVTITCRASKPVDGEGDSYLNWYQQKPGKAPKLLIYAASYLESGVPSRFSGSGSGTDFTLTISSLQPEDFATYYCQQSHEDPYTFGQGTKVEIKRTVAAPSVFIFPPSDEQLKSGTASVVCLLNNFYPREAKVQWKVDNALQSGNSQESVTEQDSKDSTYSLSSTLTLSKADYEKHKVYACEVTHQGLSSPVTKSFNRGEC
notes: Fc variant of E27; also called IG2 179
B6: anti-IgE E27 IgG1 variant K290(307)Q (antibody)
heavy: not shown
light: DIQLTQSPSSLSASVGDRVTITCRASKPVDGEGDSYLNWYQQKPGKAPKLLIYAASYLESGVPSRFSGSGSGTDFTLTISSLQPEDFATYYCQQSHEDPYTFGQGTKVEIKRTVAAPSVFIFPPSDEQLKSGTASVVCLLNNFYPREAKVQWKVDNALQSGNSQESVTEQDSKDSTYSLSSTLTLSKADYEKHKVYACEVTHQGLSSPVTKSFNRGEC
notes: Fc variant of E27; also called IG2 73
B7: anti-IgE E27 IgG1 variant K290(307)R (antibody)
heavy: not shown
light: DIQLTQSPSSLSASVGDRVTITCRASKPVDGEGDSYLNWYQQKPGKAPKLLIYAASYLESGVPSRFSGSGSGTDFTLTISSLQPEDFATYYCQQSHEDPYTFGQGTKVEIKRTVAAPSVFIFPPSDEQLKSGTASVVCLLNNFYPREAKVQWKVDNALQSGNSQESVTEQDSKDSTYSLSSTLTLSKADYEKHKVYACEVTHQGLSSPVTKSFNRGEC
notes: Fc variant of E27; also called IG2 78
B8: anti-IgE E27 IgG1 variant K290(307)A (antibody)
heavy: not shown
light: DIQLTQSPSSLSASVGDRVTITCRASKPVDGEGDSYLNWYQQKPGKAPKLLIYAASYLESGVPSRFSGSGSGTDFTLTISSLQPEDFATYYCQQSHEDPYTFGQGTKVEIKRTVAAPSVFIFPPSDEQLKSGTASVVCLLNNFYPREAKVQWKVDNALQSGNSQESVTEQDSKDSTYSLSSTLTLSKADYEKHKVYACEVTHQGLSSPVTKSFNRGEC
notes: Fc variant of E27; also called IG2 30; G30
B9: anti-IgE E27 IgG1 variant K290(307)G (antibody)
heavy: not shown
light: DIQLTQSPSSLSASVGDRVTITCRASKPVDGEGDSYLNWYQQKPGKAPKLLIYAASYLESGVPSRFSGSGSGTDFTLTISSLQPEDFATYYCQQSHEDPYTFGQGTKVEIKRTVAAPSVFIFPPSDEQLKSGTASVVCLLNNFYPREAKVQWKVDNALQSGNSQESVTEQDSKDSTYSLSSTLTLSKADYEKHKVYACEVTHQGLSSPVTKSFNRGEC
notes: Fc variant of E27; also called IG2 177
B10: anti-IgE E27 IgG1 variant K290(307)S (antibody)
heavy: not shown
light: DIQLTQSPSSLSASVGDRVTITCRASKPVDGEGDSYLNWYQQKPGKAPKLLIYAASYLESGVPSRFSGSGSGTDFTLTISSLQPEDFATYYCQQSHEDPYTFGQGTKVEIKRTVAAPSVFIFPPSDEQLKSGTASVVCLLNNFYPREAKVQWKVDNALQSGNSQESVTEQDSKDSTYSLSSTLTLSKADYEKHKVYACEVTHQGLSSPVTKSFNRGEC
notes: Fc variant of E27; also called IG2 75
B11: anti-IgE E27 IgG1 variant K334(353)H (antibody)
heavy: not shown
light: DIQLTQSPSSLSASVGDRVTITCRASKPVDGEGDSYLNWYQQKPGKAPKLLIYAASYLESGVPSRFSGSGSGTDFTLTISSLQPEDFATYYCQQSHEDPYTFGQGTKVEIKRTVAAPSVFIFPPSDEQLKSGTASVVCLLNNFYPREAKVQWKVDNALQSGNSQESVTEQDSKDSTYSLSSTLTLSKADYEKHKVYACEVTHQGLSSPVTKSFNRGEC
notes: Fc variant of E27
B12: anti-IgE E27 IgG1 variant K290(307)E (antibody)
heavy: not shown
light: DIQLTQSPSSLSASVGDRVTITCRASKPVDGEGDSYLNWYQQKPGKAPKLLIYAASYLESGVPSRFSGSGSGTDFTLTISSLQPEDFATYYCQQSHEDPYTFGQGTKVEIKRTVAAPSVFIFPPSDEQLKSGTASVVCLLNNFYPREAKVQWKVDNALQSGNSQESVTEQDSKDSTYSLSSTLTLSKADYEKHKVYACEVTHQGLSSPVTKSFNRGEC
notes: Fc variant of E27; also called IG2 77
B13: anti-IgE E27 IgG1 variant K334(353)M (antibody)
heavy: not shown
light: DIQLTQSPSSLSASVGDRVTITCRASKPVDGEGDSYLNWYQQKPGKAPKLLIYAASYLESGVPSRFSGSGSGTDFTLTISSLQPEDFATYYCQQSHEDPYTFGQGTKVEIKRTVAAPSVFIFPPSDEQLKSGTASVVCLLNNFYPREAKVQWKVDNALQSGNSQESVTEQDSKDSTYSLSSTLTLSKADYEKHKVYACEVTHQGLSSPVTKSFNRGEC
notes: Fc variant of E27; also called IG2 190
B14: anti-IgE E27 IgG1 variant K334(353)L (antibody)
heavy: not shown
light: DIQLTQSPSSLSASVGDRVTITCRASKPVDGEGDSYLNWYQQKPGKAPKLLIYAASYLESGVPSRFSGSGSGTDFTLTISSLQPEDFATYYCQQSHEDPYTFGQGTKVEIKRTVAAPSVFIFPPSDEQLKSGTASVVCLLNNFYPREAKVQWKVDNALQSGNSQESVTEQDSKDSTYSLSSTLTLSKADYEKHKVYACEVTHQGLSSPVTKSFNRGEC
notes: Fc variant of E27; also called IG2 221

Tests used:
[1] = target: T1, human FcγRIIA-R131 α subunit …; test: ELISA, IgG complex, receptor coated
[2] = target: T2, human FcγRIIIA-F158 α subunit extracellular domain-His6-GST fusion (human, UniProt P08637 17-208); test: ELISA, IgG complex, receptor coated
T2 construct: ECD-6His-GST fusion made in 293 cells; also called FcγRIIIA-Phe158; not shown: glutathione S transferase (GST)

[3] = target: T3, human FcγRIIIA-V158 α subunit extracellular domain-His6-GST fusion (human, UniProt P08637 17-208); test: ELISA, IgG complex, receptor coated
T3 construct: ECD-6His-GST fusion made in 293 cells; also called FcγRIIIA-Val158; not shown: glutathione S transferase (GST)

[4] = target: T3, human FcγRIIIA-V158 α subunit …; test: ELISA, IgG monomer, receptor coated

T3 sequence (P08637 other isoform, or with tags, fused parts or gaps, form in doubt): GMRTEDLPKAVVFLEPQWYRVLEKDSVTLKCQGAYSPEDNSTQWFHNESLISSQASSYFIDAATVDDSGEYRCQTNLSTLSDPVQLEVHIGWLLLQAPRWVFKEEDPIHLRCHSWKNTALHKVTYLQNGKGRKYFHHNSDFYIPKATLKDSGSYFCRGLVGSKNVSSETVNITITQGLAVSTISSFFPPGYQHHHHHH
T2 sequence (P08637 other isoform, or with tags, fused parts or gaps, form in doubt): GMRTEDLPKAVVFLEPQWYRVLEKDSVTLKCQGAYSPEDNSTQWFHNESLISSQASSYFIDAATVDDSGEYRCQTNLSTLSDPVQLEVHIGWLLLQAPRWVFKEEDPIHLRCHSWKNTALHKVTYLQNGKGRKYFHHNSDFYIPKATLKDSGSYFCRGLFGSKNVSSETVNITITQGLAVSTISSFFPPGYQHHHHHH

Binder	ratio of binding, variant/native IgG1 (mean) [1] [ratio]	ratio of binding, variant/native IgG1 (mean) [2] [ratio]	ratio of binding, variant/native IgG1 (mean) [3] [ratio]	ratio of binding, variant/native IgG1 (mean) [4] [ratio]
B1	0.75	0.84	0.92	0.83
B2	1.16	1.15	1.19	1.7
B3	1.08	1.31	1.27	1.92
B4	0.74	1.3	1.17	2.75
B5	0.76	0.88	0.94	1.28
B6	1.17	1.4	1.02	1.3
B7	1.05	1.08	1.07	1.24
B8	1.29	1.28	1.12	1.13
B9	1.07	1.23	1.11	2.29
B10	1.27	1.26	1.05	1.62
B11	1.09	1.26	0.97	2.06
B12	1.1	1.3	0.98	1.5
B13	1.06	1.35	0.99	2.08
B14	1.05	1.38	0.96	3.59
